From publication PMC6049852, “Comprehensive investigation of a dye-decolorizing peroxidase and a manganese peroxidase from Irpex lacteus F17, a lignin-degrading basidiomycete” (AMB Express, 2018)

How the values were obtained:
Assay in all cases: purified protein
[1] = substrate: Nc1c(N=Nc2ccc(S(=O)(=O)CCOS(=O)(=O)O)cc2)c(S(=O)(=O)O)cc2cc(S(=O)(=O)O)c(N=Nc3ccc(S(=O)(=O)CCOS(=O)(=O)O)cc3)c(O)c12; format: biochemical, Irpex lacteus; details: error = 95% confidence limits
[2] = substrate: Nc1c(S(=O)(=O)O)cc(Nc2cccc(S(=O)(=O)CCOS(=O)(=O)O)c2)c2c1C(=O)c1ccccc1C2=O; format: biochemical, Irpex lacteus; details: error = 95% confidence limits
[3] = substrate: CCn1c(=NN=c2sc3cc(S(=O)(=O)O)ccc3n2CC)sc2cc(S(=O)(=O)O)ccc21; format: biochemical, Irpex lacteus; details: error = 95% confidence limits
[4] = substrate: COc1cccc(OC)c1O; format: biochemical, Irpex lacteus; details: error = 95% confidence limits
[5] = substrate: COc1ccccc1O; details: pH 4, 45 °C, error = 95% confidence limits
[6] = substrate: COc1ccc(CO)cc1OC; format: biochemical, Irpex lacteus; details: 0.1 mM H2O2, 0.1 M sodium tartrate, pH 3.5, 45 °C, error = 95% confidence limits
[7] = 0.1 mM H2O2, 1 mM Mn2+, 0.1 M sodium tartrate, pH 3, 35 °C
[8] = 0.1 mM H2O2, 1 mM Mn2+, 0.1 M sodium tartrate, pH 3.5, 45 °C
[9] = 0.1 mM H2O2, 1 mM Mn2+, 0.1 M sodium tartrate, pH 4.5, 55 °C
[10] = 0.1 mM H2O2, 1 mM Mn2+, 0.1 M sodium tartrate
[11] = 0.1 mM H2O2, 0.1 M sodium tartrate, pH 4, 35 °C
[12] = 0.1 mM H2O2, 0.1 M sodium tartrate, pH 4.5, 35 °C
[13] = 0.1 mM H2O2, 0.1 M sodium tartrate, pH 3.5, 35 °C
[14] = 0.1 mM H2O2, 0.1 M sodium tartrate

B1: Il-MnP6 (Irpex lacteus) (protein)
chain: TKRVACPDGKNTATNAACCALFAIRDDIQENLFDGGQCGEEVHESFRLTFHDAIGIGSNGGGGADGSIAVFEAIETAFHANNGVDEIIDEQKPFIARHNITPGDFIQFAGAVGVSNCPGAPRLDFFLGRPNPVAPAPDKTVPEPFDSVTSILARFKDAGNFSPEEVVALLGSHTIAAADHVDPTIPGTPFDSTPEVFDTQVFLEVQLRGTLFPGTAGNQGEVQSPLRGEIRLQSDHDLARDQRTACEWQSFVNNQAKLQRNFKAAFKKLSILGHDERRLIDCSEVIPEPPNVKVKPATFPAGLSNKDVEQACRATPFPTLPTDPGPSTSVAPVPPS
notes: 359 aa printed, predicted 23-aa signal peptide; short-type MnP
With B1 the Km [1, 7] was 4.4 ± 0.7 µM, the kcat [1, 7] was 0.06 ± 0.003 s⁻¹ and the kcat/Km [1, 7] was “(1.5 ± 0.07) × 10^4 s^-1M^-1”. For the same protein, the Km [2, 7] was 81 ± 39.5 µM, the kcat [2, 7] was 7.3 ± 2.6 s⁻¹ and the kcat/Km [2, 7] was “(9.0 ± 3.2) × 10^4 s^-1M^-1”. The Km [3, 8] was 83 ± 6.5 µM, the kcat [3, 8] was 245 ± 7 s⁻¹ and the kcat/Km [3, 8] was “(3.0 ± 0.09) × 10^6 s^-1M^-1”. The Km [4, 9] was 53 ± 8.6 µM, the kcat [4, 9] was 989 ± 100 s⁻¹ and the kcat/Km [4, 9] was “(1.9 ± 0.2) × 10^7 s^-1M^-1”. The Km [5, 10] was 2.6 ± 0.6 µM, the kcat [5, 10] was 184 ± 7 s⁻¹ and the kcat/Km [5, 10] was “(7.1 ± 0.3) × 10^7 s^-1M^-1”.

B2: Il-DyP4 (Irpex lacteus) (protein)
chain: SAGNDSLPFENIQGDILVGMKKDKEKFVFFHINNATAFKSVLKTYAPANITSVATIIGPVANQPLAFVNLAFSHAGFGALNVTDDLQDTAFSDGQFKDSPNLGDDTSTWEEAFKGTNVDGVFLIGSNDESITAQYRDDLNAKFGDAWTIVYDLDSAARPGNEKGHEHFGYLDGISNPTIPGFGTPHPGQAVVDPGIIFTGRSKDPVMNRPSWALDGSFLVFRKLKQLVPEFNKYVLDNALQNQAGNLTVEEGAELLGSRMFGRWKSGAPIDLSPDFDDPALGNDIERNNNFNYSHPGSDLATDQTRCPFTAHIRKTNPRDLEGQGLFGDTFHAIRAGTPYGPEVTDYEASSNTTTIDRGLAFVEYQSVIGNGFRFQQQAWANNPRFPFSKGPSIQLGLDPVIGQGSPRETFGLDPRNASESFTVPQVIISNGGEYFFSPSITAIVEKFAA
notes: 502 aa given, 52-aa signal peptide stated
B2 was tested, and the Km [1, 11] was 159 ± 61 µM, the kcat [1, 11] was 267 ± 96 s⁻¹ and the kcat/Km [1, 11] was “(1.7 ± 0.6) × 10^6 s^-1M^-1”. For the same protein, the Km [2, 12] was 133 ± 34 µM, the kcat [2, 12] was 5345 ± 921 s⁻¹ and the kcat/Km [2, 12] was “(4.0 ± 0.7) × 10^7 s^-1M^-1”. For the same protein, the Km [3, 13] was 62 ± 11 µM, the kcat [3, 13] was 8356 ± 747 s⁻¹ and the kcat/Km [3, 13] was “(1.3 ± 0.1) × 10^8 s^-1M^-1”. The Km [6] was “(2.1 ± 0.98) × 10^4 μM”, the kcat [6] was 108 ± 47 s⁻¹ and the kcat/Km [6] was “(5.2 ± 2.3) × 10^3 s^-1M^-1”. For the same protein, the Km [4, 11] was 58 ± 3 µM, the kcat [4, 11] was 4896 ± 131 s⁻¹ and the kcat/Km [4, 11] was “(8.4 ± 0.2) × 10^7 s^-1M^-1”. The Km [5, 14] was 24 ± 7.5 µM, the kcat [5, 14] was 413 ± 34 s⁻¹ and the kcat/Km [5, 14] was “(1.7 ± 0.1) × 10^7 s^-1M^-1”.
